# Experimental data: publication PMC7954794, “Protein context shapes the specificity of SH3 domain-mediated interactions in vivo” (Nature Communications, 2021)
# Experiments:
# Format in all cases: cell-based, Saccharomyces cerevisiae
# [1] = system: ABP1; assay: DHFR-PCA on solid medium, bait ABP1 (Fig. 1B); conditions: bait ABP1, label = prey
# Excerpt: (§1) Supplement 41467_2021_21873_MOESM8_ESM.xlsx, sheet "Fig1B" | column: medsize; medrep; Ratio; Score
# [2] = system: BEM1-2; assay: DHFR-PCA on solid medium, bait BEM1-2 (Fig. 1B); conditions: bait BEM1-2, label = prey
# Excerpt: as §1
# [3] = system: BEM1-1; assay: DHFR-PCA on solid medium, bait BEM1-1 (Fig. 1B); conditions: bait BEM1-1, label = prey
# Excerpt: as §1
# [4] = only significant differences showed, PPIs completely lost have a ratio of 0.1 and the gained PPIs 2.5
molecule,measurement,setting,value
"YER008C (protein, UniProt P33332 1-1336, looked up) Exocyst complex component SEC3: MRSSKSPFKRKSHSRETSHDENTSFFHKRTISGSSAHHSRNVSQGAVPSSAPPVSGGNYSHKRNVSRASNSSQTSNFLAEQYERDRKAIINCCFSRPDHKTGEPPNNYITHVRIIEDSKFPSSRPPPDSKLENKKKRLLILSAKPNNAKLIQIHKARENSDGSFQIGRTWQLTELVRVEKDLEISEGFILTMSKKYYWETNSAKERTVFIKSLITLYIQTFEGHVPELVNWDLSLFYLDERSYQRAVITNRPGSVSPIKSPTSNFTTNTTQSVGSVPFSAPTERTRRSETESVNPVSTPASVEYHAGMKSLNKAPYSSNSTLNEVNKRYELEQQQQQEEAELRRLEEQKRLQLQKENEMKRLEEERRIKQEERKRQMELEHQRQLEEEERKRQMELEAKKQMELKRQRQFEEEQRLKKERELLEIQRKQREQETAERLKKEEQEALAKKEEEEKSKRNKVDNESYTQEINGKVDNLLEDLNAVLAEETETTPTMQNGTYVPERSTARAHDQLKKPLNIAKVESLGGSDLNDSISLSDEIAGLNTSNLSGEDQDEKNDLSFEKGDEVRYSNNFEGEAPHVYHEVSIIQEEAPAVSQKLILPEENNESEALIESKEEIKTMENIDDEVLLEILTDINWSIEDDADSMIERIDLRLAETEYLFNQNLLSLQKIGPNIRPYEDKVNDECHRIIPTLSLFLMEMSNFSNDIENVESQDNGLQVESANKKLLWNTLDELLKTVSLDEISLNQLLECPIREKNLPWMENQLNLLLKAFQAIGSDGNEVEYNLREISGLKQRLQFYEKVTKIFLNRIVEEMQKKFSNIRGQDISHDQMIRILTTLLIFSPLILFCKEISQKSYQAIVENWNVSIQPVYMELWTKKISQLQGIDTNDEKMNELSLSQLLNEWDTFRKERKTNDINPVFKNSFSLLTECLQTMRQECIVYQNFVEVFFHISSKHNFEEYIKHFNDPDAPPILLDTVKVMQSDREAAVIETQLVSRIFQPIVTRLSSYFVELVKAEPTVAPALTFYLENEIKSLESSNHEFLLSAVTRMYTQIKQVWSDNVEEQVLHFERISNATTNGEILPGILDLPVGLKNSEDLFQFAKRSMDIKDTDEGYESIELMNSSFRKLSIAATRSITHKEVNSSINPNLSDTAALNNDYMETISLLVNSNWLTEMLSMLNFNKDGIFDTSLQNVKKVFDVEKESYASFLLRDTMPKLTAFVYGVSNIIENTNNVNMTNPSRWAAYSRQNLENILLAYTSHEIETLVKRLHTHMVNDFGYHQENAINNVLCDKLWSCIQGQTVSLYLKLYTVIDKHYRGTNIRFTKNDIISAFEEYKNA","medrep (log2 median colony size normalized to plate background, PCA score)",[1]; 2-4 replicates,1.509
same,Ratio (SH3-deleted/WT medrep),[1]; [4],2.5
same,"medrep (log2 median colony size normalized to plate background, PCA score)",[2]; 2-8 replicates,1.89
same,Ratio (SH3-deleted/WT medrep),[2]; [4],0.1
same,"medrep (log2 median colony size normalized to plate background, PCA score)",[3]; 2-8 replicates,1.89
same,Ratio (SH3-deleted/WT medrep),[3]; [4],0.1
